Laboratory results taken from PMC9198364 (Molecular Therapy. Methods & Clinical Development, 2022).

Assays:
[1] = biological target: AAVPHP.eB capsid (recombinant AAVPHP.eB particles) (adeno-associated virus 9 (parental serotype)) (UniProt Q6JC40); experiment: SPR
[2] = biological target: adeno-associated virus (AAV) 9 capsid (recombinant AAV9 particles) (adeno-associated virus 9, UniProt Q6JC40 1-736); experiment: SPR

B1: soluble AAV receptor (AAVR) extracellular fragment containing PKD1-5 (domain or fragment)
chain: RKNRPPIAIVSPQFQEISLPTTSTVIDGSQSTDDDKIVQYHWEELKGPLREEKISEDTAILKLSKLVPGNYTFSLTVVDSDGATNSTTANLTVNK
Kd [1]: 274 nM
Kd [2]: 138 nM
